In article PMC12714728 (npj Viruses, 2025):
Positions of bridges follow the written chain, without caps; N, C: chain ends. No end group written: not given here.

B1: cyclic peptide CP8 (peptide)
peptide: CLYRDPLGVAGGMGC
modifications: not fully specified (bridges); cysteine pairing not given here
notes: source: synthetic peptide (manual solid phase Fmoc chemistry, iodine oxidation, RP-HPLC)
B2: cyclic peptide CP14 (peptide)
peptide: LYEDPLGVAGGMG
modifications: head-to-tail lactam cyclized (no template)
notes: source: synthetic peptide (manual solid phase Fmoc chemistry, RP-HPLC)
B3: cyclic peptide CP11 (peptide)
peptide: CYRDPLGVAGGMC
modifications: disulfide 1-13
notes: as for B1

Target: H1/Bri HA, A/Brisbane/59/07 (H1N1) hemagglutinin, C-terminally biotinylated, for the CCI assay (influenza A virus A/Brisbane/59/07 …, C-terminal biotin)
Test: cell-based or functional assay

Row | Binder | conformational change inhibition assay (CCI) IC50 [µM]
1 | B1 | 0.54
2 | CYRDPLGVAGEMC (not fully specified; cysteine pairing not given here) [cyclic peptide CP13] | 39.4
3 | B2 | 1.24
4 | B3 | 8.52
